According to paper PMC7948503, “Optimization of a peptide ligand for the adhesion GPCR ADGRG2 provides a potent tool to explore receptor biology” (The Journal of Biological Chemistry, 2020):
Non-standard residues stand in square brackets, D forms with d. Primed or numbered codes have the meaning given here. No end group written: not given here. Phe(4-Me) = Cc1ccc(C[C@H](N)C(=O)O)cc1; FITC′ = not defined here

Columns and labels:
Experiment in all cases: FRET or BRET; HEK293 cells transfected with Rluc-ADGRG2-ΔGPS-β WT or mutants, stimulated by increasing concentrations of FITC-conjugated VPM-p15; saturation curves fitted with GraphPad; each experiment repeated 6 times
Details in all cases: one partner purified
Rluc-ADGRG2-ΔGPS-β V774A = target: T1, Rluc-ADGRG2-ΔGPS-β V774A (mouse, UniProt Q8CJ12-3 38-995, V774A)
T1 construct: ADGRG2 (GPR64), mouse, ADGRG2-ΔGPS-β: the entire ECD removed; source: HEK293, transfected, on cells; not shown: Rluc, N-terminal, kept

Rluc-ADGRG2-ΔGPS-β F764A = target: T2, Rluc-ADGRG2-ΔGPS-β F764A (mouse, UniProt Q8CJ12-3 38-995, F764A)
T2 construct: ADGRG2 (GPR64), mouse, ADGRG2-ΔGPS-β: the entire ECD removed; source: HEK293, transfected, on cells; not shown: Rluc, N-terminal, kept

Rluc-ADGRG2-ΔGPS-β F671A = target: T3, Rluc-ADGRG2-ΔGPS-β F671A (mouse, UniProt Q8CJ12-3 38-995, F671A)
T3 construct: ADGRG2 (GPR64), mouse, ADGRG2-ΔGPS-β: the entire ECD removed; source: HEK293, transfected, on cells; not shown: Rluc, N-terminal, kept

Rluc-ADGRG2-ΔGPS-β L683A = target: T4, Rluc-ADGRG2-ΔGPS-β L683A (mouse, UniProt Q8CJ12-3 38-995, L683A)
T4 construct: ADGRG2 (GPR64), mouse, ADGRG2-ΔGPS-β: the entire ECD removed; source: HEK293, transfected, on cells; not shown: Rluc, N-terminal, kept

Rluc-ADGRG2-ΔGPS-β L679A = target: T5, Rluc-ADGRG2-ΔGPS-β L679A (mouse, UniProt Q8CJ12-3 38-995, L679A)
T5 construct: ADGRG2 (GPR64), mouse, ADGRG2-ΔGPS-β: the entire ECD removed; source: HEK293, transfected, on cells; not shown: Rluc, N-terminal, kept

Rluc-ADGRG2-ΔGPS-β S661A = target: T6, Rluc-ADGRG2-ΔGPS-β S661A (mouse, UniProt Q8CJ12-3 38-995, S661A)
T6 construct: ADGRG2 (GPR64), mouse, ADGRG2-ΔGPS-β: the entire ECD removed; source: HEK293, transfected, on cells; not shown: Rluc, N-terminal, kept

Rluc-ADGRG2-ΔGPS-β Y611A = target: T7, Rluc-ADGRG2-ΔGPS-β Y611A (mouse, UniProt Q8CJ12-3 38-995, Y611A)
T7 construct: ADGRG2 (GPR64), mouse, ADGRG2-ΔGPS-β: the entire ECD removed; source: HEK293, transfected, on cells; not shown: Rluc, N-terminal, kept

Rluc-ADGRG2-ΔGPS-β I663A = target: T8, Rluc-ADGRG2-ΔGPS-β I663A (mouse, UniProt Q8CJ12-3 38-995, I663A)
T8 construct: ADGRG2 (GPR64), mouse, ADGRG2-ΔGPS-β: the entire ECD removed; source: HEK293, transfected, on cells; not shown: Rluc, N-terminal, kept

Rluc-ADGRG2-ΔGPS-β C614A = target: T9, Rluc-ADGRG2-ΔGPS-β C614A (mouse, UniProt Q8CJ12-3 38-995, C614A)
T9 construct: ADGRG2 (GPR64), mouse, ADGRG2-ΔGPS-β: the entire ECD removed; source: HEK293, transfected, on cells; not shown: Rluc, N-terminal, kept

Rluc-ADGRG2-ΔGPS-β F838A = target: T10, Rluc-ADGRG2-ΔGPS-β F838A (mouse, UniProt Q8CJ12-3 38-995, F838A)
T10 construct: ADGRG2 (GPR64), mouse, ADGRG2-ΔGPS-β: the entire ECD removed; source: HEK293, transfected, on cells; not shown: Rluc, N-terminal, kept

Rluc-ADGRG2-ΔGPS-β V768A = target: T11, Rluc-ADGRG2-ΔGPS-β V768A (mouse, UniProt Q8CJ12-3 38-995, V768A)
T11 construct: ADGRG2 (GPR64), mouse, ADGRG2-ΔGPS-β: the entire ECD removed; source: HEK293, transfected, on cells; not shown: Rluc, N-terminal, kept

Rluc-ADGRG2-ΔGPS-β N759A = target: T12, Rluc-ADGRG2-ΔGPS-β N759A (mouse, UniProt Q8CJ12-3 38-995, N759A)
T12 construct: ADGRG2 (GPR64), mouse, ADGRG2-ΔGPS-β: the entire ECD removed; source: HEK293, transfected, on cells; not shown: Rluc, N-terminal, kept

Rluc-ADGRG2-ΔGPS-β T610A = target: T13, Rluc-ADGRG2-ΔGPS-β T610A (mouse, UniProt Q8CJ12-3 38-995, T610A)
T13 construct: ADGRG2 (GPR64), mouse, ADGRG2-ΔGPS-β: the entire ECD removed; source: HEK293, transfected, on cells; not shown: Rluc, N-terminal, kept

Rluc-ADGRG2-ΔGPS-β M839A = target: T14, Rluc-ADGRG2-ΔGPS-β M839A (mouse, UniProt Q8CJ12-3 38-995, M839A)
T14 construct: ADGRG2 (GPR64), mouse, ADGRG2-ΔGPS-β: the entire ECD removed; source: HEK293, transfected, on cells; not shown: Rluc, N-terminal, kept

Rluc-ADGRG2-ΔGPS-β F826A = target: T15, Rluc-ADGRG2-ΔGPS-β F826A (mouse, UniProt Q8CJ12-3 38-995, F826A)
T15 construct: ADGRG2 (GPR64), mouse, ADGRG2-ΔGPS-β: the entire ECD removed; source: HEK293, transfected, on cells; not shown: Rluc, N-terminal, kept

Rluc-ADGRG2-ΔGPS-β S760A = target: T16, Rluc-ADGRG2-ΔGPS-β S760A (mouse, UniProt Q8CJ12-3 38-995, S760A)
T16 construct: ADGRG2 (GPR64), mouse, ADGRG2-ΔGPS-β: the entire ECD removed; source: HEK293, transfected, on cells; not shown: Rluc, N-terminal, kept
T16 sequence (Q8CJ12 other isoform, or with tags, fused parts or gaps S760A | S760A | S760A S760A): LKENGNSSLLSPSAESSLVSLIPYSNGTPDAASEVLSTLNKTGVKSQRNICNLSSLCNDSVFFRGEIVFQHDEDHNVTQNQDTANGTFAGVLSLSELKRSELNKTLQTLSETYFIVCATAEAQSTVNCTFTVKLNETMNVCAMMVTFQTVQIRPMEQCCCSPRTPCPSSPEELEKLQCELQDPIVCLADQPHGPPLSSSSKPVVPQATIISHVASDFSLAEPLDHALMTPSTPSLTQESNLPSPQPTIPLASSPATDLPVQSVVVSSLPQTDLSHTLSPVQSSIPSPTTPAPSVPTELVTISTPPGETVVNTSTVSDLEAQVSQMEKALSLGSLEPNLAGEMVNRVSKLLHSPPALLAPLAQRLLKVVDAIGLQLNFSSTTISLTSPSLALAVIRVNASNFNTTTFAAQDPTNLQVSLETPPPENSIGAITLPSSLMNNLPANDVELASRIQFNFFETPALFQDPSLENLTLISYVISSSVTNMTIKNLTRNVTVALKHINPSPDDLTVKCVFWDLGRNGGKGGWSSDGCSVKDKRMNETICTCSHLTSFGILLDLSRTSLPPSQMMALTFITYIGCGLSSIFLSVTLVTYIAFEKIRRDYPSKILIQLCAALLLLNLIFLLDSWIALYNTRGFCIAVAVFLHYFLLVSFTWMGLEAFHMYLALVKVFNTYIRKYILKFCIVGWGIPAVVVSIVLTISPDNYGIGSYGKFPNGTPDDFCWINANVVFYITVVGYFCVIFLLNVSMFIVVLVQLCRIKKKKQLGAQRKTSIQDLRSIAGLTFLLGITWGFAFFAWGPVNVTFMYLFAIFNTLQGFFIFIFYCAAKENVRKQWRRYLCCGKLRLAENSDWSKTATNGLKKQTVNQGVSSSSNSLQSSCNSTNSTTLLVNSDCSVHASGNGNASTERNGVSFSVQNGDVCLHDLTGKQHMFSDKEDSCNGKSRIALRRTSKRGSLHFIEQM

T11 sequence (Q8CJ12 other isoform, or with tags, fused parts or gaps V768A | V768A | V768A V768A): as the sequence (Q8CJ12 other isoform, or with tags, fused parts or gaps S760A | S760A | S760A S760A) above, with A723S, V731A counted along it
T6 sequence (Q8CJ12 other isoform, or with tags, fused parts or gaps S661A | S661A | S661A S661A): as the sequence (Q8CJ12 other isoform, or with tags, fused parts or gaps S760A | S760A | S760A S760A) above, with S624A, A723S counted along it
T7 sequence (Q8CJ12 other isoform, or with tags, fused parts or gaps Y611A | Y611A | Y611A Y611A): as the sequence (Q8CJ12 other isoform, or with tags, fused parts or gaps S760A | S760A | S760A S760A) above, with Y574A, A723S counted along it
T13 sequence (Q8CJ12 other isoform, or with tags, fused parts or gaps T610A | T610A | T610A T610A): as the sequence (Q8CJ12 other isoform, or with tags, fused parts or gaps S760A | S760A | S760A S760A) above, with T573A, A723S counted along it
T10 sequence (Q8CJ12 other isoform, or with tags, fused parts or gaps F838A | F838A | F838A F838A): as the sequence (Q8CJ12 other isoform, or with tags, fused parts or gaps S760A | S760A | S760A S760A) above, with A723S, F801A counted along it
T5 sequence (Q8CJ12 other isoform, or with tags, fused parts or gaps L679A | L679A | L679A L679A): as the sequence (Q8CJ12 other isoform, or with tags, fused parts or gaps S760A | S760A | S760A S760A) above, with L642A, A723S counted along it
T8 sequence (Q8CJ12 other isoform, or with tags, fused parts or gaps I663A | I663A | I663A I663A): as the sequence (Q8CJ12 other isoform, or with tags, fused parts or gaps S760A | S760A | S760A S760A) above, with I626A, A723S counted along it
T2 sequence (Q8CJ12 other isoform, or with tags, fused parts or gaps F764A | F764A | F764A F764A): as the sequence (Q8CJ12 other isoform, or with tags, fused parts or gaps S760A | S760A | S760A S760A) above, with A723S, F727A counted along it
T1 sequence (Q8CJ12 other isoform, or with tags, fused parts or gaps V774A | V774A | V774A V774A): as the sequence (Q8CJ12 other isoform, or with tags, fused parts or gaps S760A | S760A | S760A S760A) above, with A723S, V737A counted along it
T9 sequence (Q8CJ12 other isoform, or with tags, fused parts or gaps C614A | C614A | C614A C614A): as the sequence (Q8CJ12 other isoform, or with tags, fused parts or gaps S760A | S760A | S760A S760A) above, with C577A, A723S counted along it
T15 sequence (Q8CJ12 other isoform, or with tags, fused parts or gaps F826A | F826A | F826A F826A): as the sequence (Q8CJ12 other isoform, or with tags, fused parts or gaps S760A | S760A | S760A S760A) above, with A723S, F789A counted along it
T4 sequence (Q8CJ12 other isoform, or with tags, fused parts or gaps L683A | L683A | L683A L683A): as the sequence (Q8CJ12 other isoform, or with tags, fused parts or gaps S760A | S760A | S760A S760A) above, with L646A, A723S counted along it
T12 sequence (Q8CJ12 other isoform, or with tags, fused parts or gaps N759A | N759A | N759A N759A): as the sequence (Q8CJ12 other isoform, or with tags, fused parts or gaps S760A | S760A | S760A S760A) above, with N722A, A723S counted along it
T3 sequence (Q8CJ12 other isoform, or with tags, fused parts or gaps F671A | F671A | F671A F671A): as the sequence (Q8CJ12 other isoform, or with tags, fused parts or gaps S760A | S760A | S760A S760A) above, with F634A, A723S counted along it
T14 sequence (Q8CJ12 other isoform, or with tags, fused parts or gaps M839A | M839A | M839A M839A): as the sequence (Q8CJ12 other isoform, or with tags, fused parts or gaps S760A | S760A | S760A S760A) above, with A723S, M802A counted along it

B1: FITC-conjugated VPM-p15 (ADGRG2 Stachel peptide p15 T1V/F3Phe(4-Me)) (peptide)
chain: VS[Phe(4-Me)]GILLDLSRTSLP-{FITC′}
EC50 (Rluc-ADGRG2-ΔGPS-β V774A): 1080 nM | EC50 (Rluc-ADGRG2-ΔGPS-β F764A): 1110 nM | EC50 (Rluc-ADGRG2-ΔGPS-β F671A): 880 nM | EC50 (Rluc-ADGRG2-ΔGPS-β L683A): 1160 nM | EC50 (Rluc-ADGRG2-ΔGPS-β L679A): 1160 nM | EC50 (Rluc-ADGRG2-ΔGPS-β S661A): 778 nM | EC50 (Rluc-ADGRG2-ΔGPS-β Y611A): 712 nM | EC50 (Rluc-ADGRG2-ΔGPS-β I663A): 772 nM | EC50 (Rluc-ADGRG2-ΔGPS-β C614A): 1290 nM | EC50 (Rluc-ADGRG2-ΔGPS-β F838A): 767 nM | EC50 (Rluc-ADGRG2-ΔGPS-β V768A): 1040 nM | EC50 (Rluc-ADGRG2-ΔGPS-β N759A): 1550 nM | EC50 (Rluc-ADGRG2-ΔGPS-β T610A): 1120 nM | EC50 (Rluc-ADGRG2-ΔGPS-β M839A): 896 nM | EC50 (Rluc-ADGRG2-ΔGPS-β F826A): 1170 nM | EC50 (Rluc-ADGRG2-ΔGPS-β S760A): 1350 nM
